Experiment [1] concerns the target T1, human IL-17A (human, UniProt Q16552 24-155).
T1 construct: secreted form made in Hek293 cells (GenBank U32659); also called hIL-17A; hIL17A
The experiment can be described thus: SPR (Biacore) off-rate.
T1 sequence (Q16552 other isoform, or with tags, fused parts or gaps): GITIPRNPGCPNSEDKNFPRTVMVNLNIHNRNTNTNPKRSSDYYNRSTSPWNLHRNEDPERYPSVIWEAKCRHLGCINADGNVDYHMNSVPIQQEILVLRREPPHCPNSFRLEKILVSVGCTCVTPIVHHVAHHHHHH

Experiment [2] addresses T2, human IL-17A/F heterodimer (human, UniProt Q16552 24-155; Q96PD4 31-163, limits assumed).
T2 construct: bought, made in E. coli (R&D Systems 5194-IL/CF); also called hIL-17A/F; hIL17A/F
The experiment can be described thus: SPR (Biacore) off-rate.
Target sequence in this assay (Q16552 24-155 limits assumed, one chain of several): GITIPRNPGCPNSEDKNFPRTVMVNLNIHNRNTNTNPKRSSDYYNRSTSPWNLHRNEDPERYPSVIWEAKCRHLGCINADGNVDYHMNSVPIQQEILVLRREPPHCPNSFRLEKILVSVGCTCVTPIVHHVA

The target in experiment [3] is T3, Cynomolgus monkey IL-17A (Cynomolgus monkey, UniProt A0A2K5TTB0 24-155).
T3 construct: also called cyno IL-17A; cIL-17A
Description: SPR (Biacore) off-rate.

In experiment [4] the target is T1, human IL-17A. Description: cell-based or functional assay.
In experiment [5] the target is T2, human IL-17A/F heterodimer. The experiment can be described thus: cell-based or functional assay.
Target sequence in this assay (Q16552 24-155 limits assumed, one chain of several): as above
For experiment [6], the target named is T1, human IL-17A. The experiment can be described thus: AlphaScreen IL-17A-IL-17RA (average).
Experiment [7] deals with T4, human IL-17F (human, UniProt Q96PD4 31-163).
T4 construct: made in Hek293 cells (GenBank AF384857); also called hIL-17F; hIL17F
T4 sequence: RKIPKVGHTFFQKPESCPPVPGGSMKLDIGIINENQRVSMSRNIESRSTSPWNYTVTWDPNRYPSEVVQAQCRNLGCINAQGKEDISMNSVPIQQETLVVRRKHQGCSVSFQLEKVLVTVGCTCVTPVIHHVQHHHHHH
Description: SPR (Biacore) off-rate.

The target of experiment [8] is T2, human IL-17A/F heterodimer. Description: SPR (Biacore) off-rate. The source holds these as a separate data set.
Target sequence in this assay (Q16552 24-155 limits assumed, chain 1 of 2, one chain of several): as the sequence (Q16552 24-155 limits assumed, one chain of several) above
Experiment [9] deals with T4, human IL-17F. The experiment can be described thus: AlphaScreen IL-17F-IL-17RC; vs IL17MS16A04.
In experiment [10] the target is T5, human IL-17A (human, UniProt Q16552 24-155). Description: cell-based or functional assay. This is another data set of the same source.
T5 sequence (Q16552 other isoform, or with tags, fused parts or gaps): as the sequence (Q16552 other isoform, or with tags, fused parts or gaps) above
Experiment [11] concerns the target T6, human IL-17F (human, UniProt Q96PD4 31-163).
T6 sequence: T4 sequence
Description: cell-based or functional assay.

For experiment [12], the target named is T5, human IL-17A. The experiment can be described thus: competition ELISA IL17A-RA.
Description: (§1) To this end, IL-17RA, respectively IL-17RC was coated at a concentration of 1 μg/ml in PBS.
Experiment [13] deals with T6, human IL-17F. Description: competition ELISA IL17F-RC.
Description: as §1
In experiment [14] the target is T7, human IL-17F (human, UniProt Q96PD4 31-163).
T7 construct: also called hIL-17F; rhIL-17F
T7 sequence: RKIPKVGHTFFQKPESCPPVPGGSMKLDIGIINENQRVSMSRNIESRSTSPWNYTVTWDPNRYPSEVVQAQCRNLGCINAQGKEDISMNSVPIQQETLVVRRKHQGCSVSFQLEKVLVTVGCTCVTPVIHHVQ
The experiment can be described thus: method not given.

Experiment [15] concerns the target T5, human IL-17A. The experiment can be described thus: ELISA, coated IL-17A.
Description: (§2) Binding of a selected panel of anti-IL-17 Nanobodies to IL-17 of other species was assessed using a binding ELISA. […] HRP (horseradish peroxidase) conjugated anti-myc (Serotec, MCA 2200P) was used for detection using esTMB as substrate.
Experiment [16] concerns the target T8, marmoset IL-17A (marmoset, IL-17A is a disulfide-linked homodimer. One chain is given.).
T8 chain: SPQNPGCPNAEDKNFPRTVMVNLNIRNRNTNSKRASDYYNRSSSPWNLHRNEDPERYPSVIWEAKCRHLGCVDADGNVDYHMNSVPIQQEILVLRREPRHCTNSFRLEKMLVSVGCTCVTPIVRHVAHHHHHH
The experiment can be described thus: ELISA, coated IL-17A.
Description: as §2

For experiment [17], the target named is T9, mouse IL-17A (mouse, UniProt Q62386 26-158).
T9 sequence (looked up): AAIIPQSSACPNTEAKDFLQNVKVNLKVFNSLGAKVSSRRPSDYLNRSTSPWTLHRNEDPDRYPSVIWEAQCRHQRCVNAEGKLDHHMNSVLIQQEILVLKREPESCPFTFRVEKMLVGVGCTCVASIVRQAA
The experiment can be described thus: ELISA, coated IL-17A.
Description: as §2

In experiment [18] the target is T10, rat IL-17A (rat, UniProt Q61453 18-150, limits assumed).
T10 sequence (looked up): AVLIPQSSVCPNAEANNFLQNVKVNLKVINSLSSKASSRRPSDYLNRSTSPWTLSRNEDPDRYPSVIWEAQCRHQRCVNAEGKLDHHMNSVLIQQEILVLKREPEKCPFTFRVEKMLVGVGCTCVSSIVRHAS
Description: ELISA, coated IL-17A.
Description: as §2

Experiment [19] concerns the target guinea pig IL-17A (guinea pig). Description: ELISA, coated IL-17A.
Description: as §2
The target in experiment [20] is T6, human IL-17F. The experiment can be described thus: ELISA, coated IL-17F.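 Further: binding ELISA on coated antigen from various species, with bound Nanobodies revealed by an HRP-linked anti-myc antibody and esTMB substrate.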
Description: as §2
Experiment [21] addresses T11, marmoset IL-17F (marmoset, UniProt A6N6I9 31-163).
T11 sequence (looked up): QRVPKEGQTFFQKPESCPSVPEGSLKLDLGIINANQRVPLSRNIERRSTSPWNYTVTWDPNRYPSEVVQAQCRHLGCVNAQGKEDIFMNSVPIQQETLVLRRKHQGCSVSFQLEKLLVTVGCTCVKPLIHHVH
The experiment can be described thus: ELISA, coated IL-17F.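 Further: binding ELISA on coated antigen from various species, with bound Nanobodies revealed by an HRP-linked anti-myc antibody and esTMB substrate.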
Description: as §2

The target in experiment [22] is T12, mouse IL-17F (mouse, UniProt Q7TNI7 29-161).
T12 sequence (looked up): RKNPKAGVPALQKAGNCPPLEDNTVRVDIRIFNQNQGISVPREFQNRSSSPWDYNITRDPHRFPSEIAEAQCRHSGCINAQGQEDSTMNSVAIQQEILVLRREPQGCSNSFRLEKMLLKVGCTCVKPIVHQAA
Description: ELISA, coated IL-17F.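 Further: binding ELISA on coated antigen from various species, with bound Nanobodies revealed by an HRP-linked anti-myc antibody and esTMB substrate.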
Description: as §2

Experiment [23] concerns the target T13, rat IL-17F (rat, UniProt Q5BJ95 29-161).
T13 sequence (looked up): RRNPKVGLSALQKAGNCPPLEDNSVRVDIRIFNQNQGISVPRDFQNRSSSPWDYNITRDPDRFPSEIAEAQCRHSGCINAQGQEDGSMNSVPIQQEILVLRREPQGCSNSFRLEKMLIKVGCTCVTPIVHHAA
The experiment can be described thus: ELISA, coated IL-17F.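 Further: binding ELISA on coated antigen from various species, with bound Nanobodies revealed by an HRP-linked anti-myc antibody and esTMB substrate.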
Description: as §2

Experiment [24] addresses T5, human IL-17A. The experiment can be described thus: KinExA, 500 pM Nanobody.
Experiment [25] concerns the target T6, human IL-17F. The experiment can be described thus: KinExA, 500 pM Nanobody.
The target in experiment [26] is T5, human IL-17A. The experiment can be described thus: SPR, IL-17A-Nanobody complex over captured IL-17RA.
Description: (§3) The receptor (IL-17RA or IL-17RC) was captured via its human Fc-tail by an anti-human IgG-Fc antibody coated on the chip.
In experiment [27] the target is T6, human IL-17F. Description: SPR, IL-17F-Nanobody complex over captured IL-17RC.
Description: as §3
In experiment [28] the target is T6, human IL-17F. The experiment can be described thus: KinExA, 100 pM Nanobody.
Description: The affinity of a limited set of formatted Nanobodies was determined using the KinExA.

From patent US20210130452A1 (Merck KGaA, published 2021) come the findings set out here.

Numbering of substitutions follows the chain as printed. Read-outs that look alike come from different tables or passages of the source.

T3 sequence (A0A2K5TTB0 entry or part of it): as the sequence (Q16552 24-155 limits assumed, one chain of several) above, with T3A, P8S, N34S, I77V, N78K, P104R counted along it

B1: IL17MS3061 (VHH)
VHH: DVQLVESGGGLVQPGGSLRLSCAASGTIVNIHVMGWYRQAPGKQRELVALIFSGGSADYADSVKGRFTISRDNSKNTVYLQMNSLRPEDTAVYYCAAEIGYYSGGTYYSSEAHWGQGTLVTVSS
notes: variant of IL17MS04G01; Kabat numbering
Turning to B1, the koff worked out at 0.000146 s⁻¹ in [1], 0.000195 s⁻¹ in experiment [2] and 0.000181 s⁻¹ in experiment [3]. The “IC50 cell based assay hIL-17A (IL-6, HT-1080 cells)” value in experiment [4] turned out to be 0.94 nM. Also, the “IC50 cell based assay hIL-17A/F (IL-6, HT-1080 cells)” value in experiment [5] was 8.15 nM. This molecule also returned an IC50 in experiment [6] of 0.027 nM.

B2: IL17MS3040 (VHH)
VHH: EVQLVESGGGLVQAGGSLRLSCAASGRTFSSYVVGWFRQAPGKEREFIGAISGSGGSIYYAVSEKDRFTISRDNGKNTLYLQMSSLKAEDTAVYYCTADQEFGYLRFGRSEYWGQGTQVTVSS
With B2, the koff was determined as 0.00148 s⁻¹ in experiment [7] and 0.00878 s⁻¹ in experiment [8]. Moreover, the “IC50 fold difference vs WT” value in experiment [9] was determined as 9.6 fold.

B3: IL17MS3041 (VHH)
VHH: B2 VHH with G56E
On to B3, for which the off-rate constant (koff) in experiment [7] turned out to be 0.000606 s⁻¹; in [8], 0.00427 s⁻¹. Moreover, the “IC50 fold difference vs WT” value in experiment [9] was found to be 2.2 fold.

B4: IL17MS3042 (VHH)
VHH: B2 VHH with G56D, S57T
Take B4: the koff in experiment [7] turned out to be 0.00121 s⁻¹; in experiment [8], 0.005 s⁻¹. Also, the “IC50 fold difference vs WT” value in [9] was determined as 8.6 fold.

B5: SH-Fc-(GS)2-13E02 (Fc fusion, not shown: a dimerising Fc or GST; small tags and cut ends)
chain: EVQLVESGGGLVQAGGSLRLSCAASGRTYDAMGWLRQAPGKEREFVAAISGSGDDTYYADSVKGRFTISKDNAGITMYLQMNSLKPEDTAVYYCATRRGLYYVWDSNDYENWGQGTQVTVSS
notes: also called MSB0010619; SH-(GS)2-Fc-13E02
B5: in [10], the “IC50, hIL-17A induced IL-6, HT-1080, without HSA” value stood at 0.31 nM. Further, the “IC50, hIL-17F induced IL-6, HT-1080, without HSA” value in experiment [11] came to 4.9 nM. For the same molecule, the results for the IC50 in experiment [12] and in [13] were 0.112 nM and 0.267 nM, respectively.

B6: 13E02 Fc fusion (Fc fusion)
chain: B5 chain
notes: also called 13E02 tested as Fc fusion; not shown: hinge and Fc
Take B6: the “fold lower affinity on IL-17F than on IL-17A” value in experiment [14] was about 10 fold.

B7: 13E02 (VHH)
VHH: B5 chain
notes: Class 4; also called IL17MS13E02
As for B7, the OD was 1.79 OD in experiment [15]; 1.85 OD in experiment [16]; -0.001 OD in experiment [17]; 0.003 OD in [18]; 0.006 OD in experiment [19]; 1.1 OD in experiment [20]. The figures for the OD in [21], in experiment [22] and in experiment [23] were 0.248 OD, 0.0155 OD and 0.0255 OD, respectively. Further, the figures for the dissociation constant Kd in experiment [24] and in [25] were 0.0359 nM and 3.62 nM, respectively. For the same molecule, the results for the half-maximal inhibitory concentration (IC50) in experiment [12] and in experiment [13] were 0.42 nM and 3.02 nM, respectively. For the same molecule, in experiment [26], the “% Biacore binding (IL-17A-NB)-IL-17RA” value was -1.04%. Moreover, the “% Biacore binding (IL-17F-NB)-IL-17RC” value in experiment [27] was 7.17%.

B8: SH-Fc-(GS)2-13B03 (Fc fusion, not shown: a dimerising Fc or GST; small tags and cut ends)
chain: EVQLVESGGGSVQAGDSLRLSCAASGRANSINWFGWFRQTPGKEREFVAGIRWSDAYTEYANSVKGRFTISRDNAKNTVDLQMDSLKPEDTAVYYCVLDLSTVRYWGQGTQVTVSS
notes: also called MSB0010618; SH-(GS)2-Fc-13B03
For the molecule B8, in [10], the “Emax, hIL-17A induced IL-6, HT-1080, without HSA” value is 100% and the “IC50, hIL-17A induced IL-6, HT-1080, without HSA” value is 0.37 nM. Moreover, in experiment [11], the “IC50, hIL-17F induced IL-6, HT-1080, without HSA” value turned out to be 5.7 nM. In addition, the affinity in experiment [28], expressed as Kd, was 0.145 nM. Moreover, in [12], the IC50 was determined as 0.044 nM.

B9: 13B03 (VHH)
VHH: B8 chain
notes: Class 4; also called IL17MS13B03
On to B9, for which the OD in experiment [15] was 1.95 OD; in [16], 1.94 OD; in experiment [17], -0.001 OD; in experiment [18], 0.004 OD; in [19], 0.004 OD; in experiment [20], 1.66 OD. In addition, the OD in experiment [21] is 1.33 OD; in [22], -0.0005 OD; in [23] it was 0.0085 OD. The results for the Kd in experiment [24] and in experiment [25] were 0.0225 nM and 4.91 nM, respectively. Also, the IC50 in [12] is 0.121 nM; in experiment [13], 91.6 nM. Also, the “% Biacore binding (IL-17A-NB)-IL-17RA” value in experiment [26] is -2.24%. Moreover, the “% Biacore binding (IL-17F-NB)-IL-17RC” value in experiment [27] was 15.7%.

B10: 13B03 Fc fusion (Fc fusion)
chain: B8 chain
notes: also called 13B03 tested as Fc fusion; not shown: hinge and Fc
Take B10: the “fold lower affinity on IL-17F than on IL-17A” value in experiment [14] was about 10 fold.
